Patent publication US20170165337A1 (IMMATICS BIOTECHNOLOGIES, published 2017)

Molecular target: T1, HLA-A*02:01 (human)
T1 construct: MHC class I monomer of the UV-ligand exchange assay; also called peptide-receptive MHC molecules; MHC class I
Experiment: UV peptide-exchange ELISA
Excerpt: Candidate peptides for T cell based therapies according to the present invention were further tested for their MHC binding capacity (affinity). The individual peptide-MHC complexes were produced by UV-ligand exchange, where a UV-sensitive peptide is cleaved upon UV-irradiation, and exchanged with the peptide of interest as analyzed. Only peptide candidates that can effectively bind and stabilize the peptide-receptive MHC molecules prevent dissociation of the MHC complexes. To determine the yield of the exchange reaction, an ELISA was performed based on the detection of the light chain (β2m) of stabilized MHC complexes. The assay was performed as generally described in Rodenko et al. (Rodenko et al., 2006).
96 well MAXISorp plates (NUNC) were coated over night with 2 ug/ml streptavidin in PBS at room temperature, washed 4× and blocked forl h at 37° C. in 2% BSA containing blocking buffer. Refolded HLA-A*02:01/MLA-001 monomers served as standards, covering the range of 15-500 ng/ml. Peptide-MHC monomers of the UV-exchange reaction were diluted 100 fold in blocking buffer. Samples were incubated for 1 h at 37° C., washed four times, incubated with 2 ug/ml HRP conjugated anti-β2m for 1 h at 37° C., washed again and detected with TMB solution that is stopped with […]. Absorption was measured at 450 nm. Candidate peptides that show a high exchange yield (preferably higher than 50%, most preferred higher than 75%) are generally preferred for a generation and production of antibodies or fragments thereof, and/or T cell receptors or fragments thereof, as they show sufficient avidity to the MHC molecules and prevent dissociation of the MHC complexes.

KLLVQDFFL and VLAELPIIVV fall in the same range of peptide exchange yield: 50 to 75% for the first, 50 to 75% for the second.

First: VMGDIPAAV
Second: ILLKTEGINL
The peptide exchange yield of the first is lower: 20 to 50% for the first, 50 to 75% for the second.

First: GLSQANFTL
Second: ALGEEWKGYVV
The peptide exchange yield of the first is higher: 50 to 75% for the first, 20 to 50% for the second.

First: ALDEPPYLTV
Second: LLKDGPEIGL
The peptide exchange yield of the first is higher: 50 to 75% for the first, 20 to 50% for the second.

YLDNVLAEL and YLVELSSLL cannot be ordered by peptide exchange yield: ≥ 75% for the first, ≥ 75% for the second.

LIDVKPLGV and ALPGGAAVAAV cannot be ordered by peptide exchange yield: 50 to 75% for the first, ≥ 75% for the second.

IIADLDTTIMFA and LLGEFSIKM fall in the same range of peptide exchange yield: 50 to 75% for the first, 50 to 75% for the second.

First: ALVSTIIMV
Second: YIQEYLTLL
The peptide exchange yield of the first is lower: 10 to 20% for the first, 50 to 75% for the second.

First: TLTFRVETV
Second: VMDDQRDLI
The peptide exchange yield of the first is higher: 50 to 75% for the first, 20 to 50% for the second.

QVMEKLAAV and ALWVSQPPEI fall in the same range of peptide exchange yield: 50 to 75% for the first, 50 to 75% for the second.

Compared with TLYDMLASI, TLDPNQVSL is lower in peptide exchange yield: 50 to 75% for the first, 20 to 50% for the second.

GLLQINDKIAL and VLLSIPFVSV fall in the same range of peptide exchange yield: 50 to 75% for the first, 50 to 75% for the second.

YMFEEVPIVI and VLDDRELLL cannot be ordered by peptide exchange yield: ≥ 75% for the first, 50 to 75% for the second.

VMDPTKILI and ALLNLLESA cannot be ordered by peptide exchange yield: ≥ 75% for the first, 50 to 75% for the second.

ALTKTNLQL and HMQDVRVLL fall in the same range of peptide exchange yield: 50 to 75% for the first, 50 to 75% for the second.

YQLELHGIEL and YVDDVFLRV cannot be ordered by peptide exchange yield: ≥ 75% for the first, ≥ 75% for the second.

ILQERELLPV and YLDLSNNRL fall in the same range of peptide exchange yield: 50 to 75% for the first, 50 to 75% for the second.

ALLSSQLAL and YLLDQSFVM cannot be ordered by peptide exchange yield: 50 to 75% for the first, ≥ 75% for the second.

YLTFLPAEV and TLVPPAALISI fall in the same range of peptide exchange yield: 50 to 75% for the first, 50 to 75% for the second.

Compared with AMEALVVEV, YLLLQTYVL is lower in peptide exchange yield: 50 to 75% for the first, 10 to 20% for the second.

First: TLDDDLDTV
Second: VLLSVPGPPV
The peptide exchange yield of the first is lower: 20 to 50% for the first, 50 to 75% for the second.

VLSHNLYTV and VLMPTVYQQGV fall in the same range of peptide exchange yield: 50 to 75% for the first, 50 to 75% for the second.

TLDTSKLYV and RLQELTEKL fall in the same range of peptide exchange yield: 50 to 75% for the first, 50 to 75% for the second.

SVHKGFAFV and TLLLGLTEV fall in the same range of peptide exchange yield: 50 to 75% for the first, 50 to 75% for the second.

ALWAGLLTL and YIFDGSDGGV fall in the same range of peptide exchange yield: 50 to 75% for the first, 50 to 75% for the second.

ALPEILFAKV and ALWELSLKI fall in the same range of peptide exchange yield: 50 to 75% for the first, 50 to 75% for the second.

VMDTHLVNI and WLAGDVPAA cannot be ordered by peptide exchange yield: ≥ 75% for the first, 50 to 75% for the second.

VLFFNVQEV and VLLGLEMTL fall in the same range of peptide exchange yield: 50 to 75% for the first, 50 to 75% for the second.

VVMGTVPRL and ALVDPGPDFVV fall in the same range of peptide exchange yield: 50 to 75% for the first, 50 to 75% for the second.

ILQAELPSL and YLGGFALSV cannot be ordered by peptide exchange yield: 50 to 75% for the first, ≥ 75% for the second.

VMQDIVYKL and VLAEQNIIPSA fall in the same range of peptide exchange yield: 50 to 75% for the first, 50 to 75% for the second.

FTVPRVVAV and YLQEVPILTL cannot be ordered by peptide exchange yield: 50 to 75% for the first, ≥ 75% for the second.

Compared with ALHRPDVYL, TVIENIHTI is lower in peptide exchange yield: 50 to 75% for the first, 20 to 50% for the second.

For VMLEMTPEL, the peptide exchange yield was 50 to 75%.
